Data reported in the supplement of paper PMC7877785.
± gives the uncertainty stated by the source.

Assay: self-splicing fitness, log relative to wild type (ln ratio); higher = more splicing; Tetrahymena group I intron in knt gene, E. coli kanamycin selection, DiMSum; sequences stand for … in CUCUCU…GGAGGGAAAAGUUAUCAGGCAUGCACCUGGUAGCUAGUCUUUAAACCAAUAGAUUGCAUCGGUUUAAAAGGCAAGACCGUCAAAUUGCGGGAAAGGGGUCAACAGCCGUUCAGUACCAAGUCUCAGGGGAAACUUUGAGAUGGCCUUGCAAAGGGUAUGGUAAUAAGCUGACGGACAUGGUCCUAACCACGCAGCCAAGUCCUAAGUCAACAGAUCUUCUGUUGAUAUGGAUGCAGUUCACAGACUAAAUGUCGGUCGGGGAAGAUGUAUUCUUCUCAUAAGAUAUAGUCGGACCUCUCCUUAAUGGGAGCUAGCGGAUGAAGUGAUGCAACACUGGAGCCGCUGGGAACUAAUUUGUAUGCGAAAGUAUAUUGAUUAGUUUUGGAGUACUCGUGGUCG
Method in brief: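 A randomised library covering all eight P1ex-region intron nucleotides was built with the intron in the knt kanamycin-resistance gene on pET-22b(+) and held in E. coli BL21(DE3). Cells were grown overnight at 37°C or 30°C on LB agar, with or without 25 μg/mL kanamycin, plus 100 μg/mL carbenicillin, 50 μM IPTG and 0.2% rhamnose, and pooled colonies were amplicon-sequenced on an Illumina HiSeq 2500. DiMSum fitness is the error-weighted combination of wild-type-normalised replicate fold changes, kanamycin versus none.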

Row | Sequence | self-splicing fitness (ln) (30 °C) | self-splicing fitness (ln) (37 °C)
1 | AUGAAGCAAUAUUACGGCGU | 0.47 ± 0.064 | 0.205 ± 0.078
2 | UUCAAGCAAUAUUACGCUAA | -1.35 ± 0.2 | -0.551 ± 0.19
3 | GCAAAGCAAUAUUACGGGCG | -0.534 ± 0.079 | -0.696 ± 0.11
4 | AGGCAGCAAUAUUACGGUAU | -1.79 ± 0.093 | -0.467 ± 0.1
5 | CCCUAGCAAUAUUACGCUUC | -2.66 ± 0.1 | -2.36 ± 0.16
6 | UCGAAGCAAUAUUACGUUGG | -2.99 ± 0.12 | -1.86 ± 0.15
7 | CUCGAGCAAUAUUACGUCAU | -4.1 ± 0.27 | -3.38 ± 0.28
8 | GAUGAGCAAUAUUACGGUUC | -4.06 ± 0.33 | -2.32 ± 0.35
9 | GAAUAGCAAUAUUACGUCCC | -1.33 ± 0.12 | -0.165 ± 0.17
10 | UGGGAGCAAUAUUACGUUUG | -3.75 ± 0.27 | -2.14 ± 0.27
11 | GAGUAGCAAUAUUACGUCCA | -1.32 ± 0.14 | -0.346 ± 0.16
12 | CUUAAGCAAUAUUACGUCGC | – | -1.65 ± 0.33
13 | UCUUAGCAAUAUUACGACGA | 0.0588 ± 0.29 | -1.68 ± 0.22
14 | GACCAGCAAUAUUACGGCCA | -0.323 ± 0.077 | 0.208 ± 0.13
15 | GUUCAGCAAUAUUACGGUAG | -2.08 ± 0.078 | -0.531 ± 0.093
16 | ACACAGCAAUAUUACGUGGC | -3.54 ± 0.23 | -0.291 ± 0.13
17 | GAAGAGCAAUAUUACGUGGU | -4.07 ± 0.23 | -3.01 ± 0.32
18 | AACCAGCAAUAUUACGCGCU | -2.01 ± 0.13 | -0.894 ± 0.13
19 | GUAUAGCAAUAUUACGGGGC | – | -1.61 ± 0.37
20 | GGCUAGCAAUAUUACGGCGC | 0.164 ± 0.14 | 0.272 ± 0.16
21 | CGCAAGCAAUAUUACGGGAC | -3.18 ± 0.31 | -2.52 ± 0.29
22 | GAAUAGCAAUAUUACGAAAU | -1.3 ± 0.1 | -1.6 ± 0.13
23 | AUAGAGCAAUAUUACGGCGA | -0.73 ± 0.059 | 0.0474 ± 0.076
24 | GAUGAGCAAUAUUACGACAG | -2.31 ± 0.47 | –
25 | CGCCAGCAAUAUUACGUCUA | – | -2.52 ± 0.3

Row | Sequence | self-splicing fitness (ln) (30 °C) | self-splicing fitness (ln) (37 °C)
26 | UGAAAGCAAUAUUACGUUUA | -0.985 ± 0.066 | -0.471 ± 0.074
27 | UCUUAGCAAUAUUACGCUUU | – | -2.47 ± 0.32
28 | AGAUAGCAAUAUUACGAAGG | -2.57 ± 0.2 | –
29 | CCAGAGCAAUAUUACGUGUU | -3.64 ± 0.16 | -2.88 ± 0.17
30 | GUUAAGCAAUAUUACGUCGA | -1.79 ± 0.11 | -1.02 ± 0.11
31 | AGCAAGCAAUAUUACGAUCA | -0.258 ± 0.084 | -0.0192 ± 0.099
32 | UAGAAGCAAUAUUACGUGGG | -3.09 ± 0.18 | -2 ± 0.19
33 | GUUAAGCAAUAUUACGUAUU | -3.27 ± 0.19 | -0.277 ± 0.16
34 | AUAAAGCAAUAUUACGAACG | -0.309 ± 0.082 | -0.0989 ± 0.11
35 | GGAGAGCAAUAUUACGUUGU | -4.01 ± 0.19 | -3.77 ± 0.24
36 | CAGCAGCAAUAUUACGGAAA | -3.12 ± 0.14 | -2.19 ± 0.16
37 | ACGGAGCAAUAUUACGAUAA | -3.89 ± 0.23 | -2.72 ± 0.21
38 | UCCCAGCAAUAUUACGAAUG | -2.98 ± 0.15 | -2.61 ± 0.17
39 | AUAGAGCAAUAUUACGCUAC | -2.79 ± 0.2 | -2.36 ± 0.2
40 | GUAAAGCAAUAUUACGGCCG | -0.257 ± 0.087 | 0.625 ± 0.12
41 | AACGAGCAAUAUUACGCUGG | -3.72 ± 0.31 | -0.45 ± 0.16
42 | AUGUAGCAAUAUUACGUACA | -0.425 ± 0.14 | -0.328 ± 0.16
43 | CGGAAGCAAUAUUACGGAUA | -3.36 ± 0.41 | -1.81 ± 0.18
44 | CACCAGCAAUAUUACGCCUC | -3.14 ± 0.23 | -1.9 ± 0.2
45 | AAUCAGCAAUAUUACGGUUA | -0.439 ± 0.08 | -0.408 ± 0.066
46 | UGCAAGCAAUAUUACGCUGU | -3.03 ± 0.19 | -2.93 ± 0.33
47 | AUCGAGCAAUAUUACGUCGC | -2.55 ± 0.28 | -2.21 ± 0.29
48 | CAUUAGCAAUAUUACGUAUU | -4.04 ± 0.4 | -2.37 ± 0.27
49 | CAUUAGCAAUAUUACGCUAG | -2.75 ± 0.28 | -0.852 ± 0.2
50 | CCGUAGCAAUAUUACGGUCC | -4.14 ± 0.3 | -2.93 ± 0.28
